Experimental findings from patent US20250388628A1 (Genentech, published 2025) are described below.

By Kd is commonly meant the equilibrium constant for the complex coming apart. In general, koff refers to the first-order rate constant of dissociation. Broadly, the kon is the second-order rate constant of association. Low readings indicate slower complex formation, high ones faster complex formation.

Assay [1] has as its target AAV receptor (AAVR) on HEK293 cells (Homo sapiens (Human)) (UniProt Q8IZA0). The experiment in a line: cell-based or functional assay.
The target in assay [2] is T1, AAV receptor (AAVR) fragment comprising the domains PKD1 and PKD2 (residues V305-V499) (Homo sapiens (Human), UniProt Q8IZA0 305-499).
T1 sequence: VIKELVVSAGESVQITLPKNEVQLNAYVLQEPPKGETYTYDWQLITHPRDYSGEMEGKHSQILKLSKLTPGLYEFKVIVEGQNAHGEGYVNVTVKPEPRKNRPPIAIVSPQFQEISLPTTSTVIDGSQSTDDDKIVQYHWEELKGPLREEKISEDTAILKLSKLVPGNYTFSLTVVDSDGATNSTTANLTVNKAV
The experiment in a line: SPR; affinity against wild-type AAV2 VLP. (SPR reads the build-up and loss of mass on a sensor chip optically.)

Assay [3] deals with T1, AAV receptor (AAVR) fragment comprising …. The experiment in a line: SPR, single replicate; captured AAV9 VP3 VLP, AAVR analyte.
Assay [4] has the same target. In words: SPR, single replicate; affinity against wild-type AAV9 VLP.
Assay [5] shares this target. In words: SPR; captured AAV9 VP3 VLP, AAVR analyte.
The target is the same in assay [6]. The experiment in a line: SPR; against wild-type VLP.
For assay [7] the target is unchanged. The experiment in a line: SPR, three replicates; affinity against wild-type AAV9 VLP.
For assay [8] the target is unchanged. In words: SPR, three replicates; captured AAV9 VP3 VLP, AAVR analyte.

Chain of AAV receptor (AAVR) on HEK293 cells (Homo sapiens (Human)) (Q8IZA0 whole entry, the tested form may be a part): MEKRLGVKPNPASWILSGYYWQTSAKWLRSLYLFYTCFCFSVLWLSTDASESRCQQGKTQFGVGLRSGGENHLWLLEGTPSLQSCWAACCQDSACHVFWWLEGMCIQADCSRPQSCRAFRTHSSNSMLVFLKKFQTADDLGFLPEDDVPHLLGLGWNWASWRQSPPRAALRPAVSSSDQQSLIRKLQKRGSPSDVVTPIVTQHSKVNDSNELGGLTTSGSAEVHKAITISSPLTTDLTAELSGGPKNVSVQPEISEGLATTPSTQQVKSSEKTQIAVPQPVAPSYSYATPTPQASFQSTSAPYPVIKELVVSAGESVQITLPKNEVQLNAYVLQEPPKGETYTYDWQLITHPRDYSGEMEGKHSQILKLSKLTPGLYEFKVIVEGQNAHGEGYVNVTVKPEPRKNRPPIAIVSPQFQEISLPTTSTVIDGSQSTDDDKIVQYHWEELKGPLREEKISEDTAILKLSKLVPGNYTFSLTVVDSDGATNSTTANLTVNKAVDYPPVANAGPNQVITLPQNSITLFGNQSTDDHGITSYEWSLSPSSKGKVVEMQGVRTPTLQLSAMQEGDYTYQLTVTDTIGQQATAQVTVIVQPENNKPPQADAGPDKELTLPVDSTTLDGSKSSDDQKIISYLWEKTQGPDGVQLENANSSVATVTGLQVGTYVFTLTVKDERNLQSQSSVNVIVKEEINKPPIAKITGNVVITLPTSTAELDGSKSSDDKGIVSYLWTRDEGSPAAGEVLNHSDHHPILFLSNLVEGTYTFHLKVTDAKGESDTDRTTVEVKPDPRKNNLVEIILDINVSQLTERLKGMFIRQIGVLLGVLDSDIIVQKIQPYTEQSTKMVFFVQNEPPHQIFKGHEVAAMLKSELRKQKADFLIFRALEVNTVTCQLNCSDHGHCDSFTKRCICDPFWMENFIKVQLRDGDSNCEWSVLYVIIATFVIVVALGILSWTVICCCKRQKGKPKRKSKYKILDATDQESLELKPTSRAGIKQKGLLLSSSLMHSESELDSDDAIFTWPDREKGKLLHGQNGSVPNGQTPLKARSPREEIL

Take “AAV9 comprising a Q387K amino acid substitution mutation (full AAV with VP1, VP2 and VP3)”: in assay [1], the Expression of a transgene (GFP) in transduced HEK293 cells is 3 fold.

B1: AAV2 VP3 VLP T592D/A593E (other)
chain: MATGSGAPMADNNEGADGVGNSSGNWHCDSTWMGDRVITTSTRTWALPTYNNHLYKQISSQSGASNDNHYFGYSTPWGYFDFNRFHCHFSPRDWQRLINNNWGFRPKRLNFKLFNIQVKEVTQNDGTTTIANNLTSTVQVFTDSEYQLPYVLGSAHQGCLPPFPADVFMVPQYGYLTLNNGSQAVGRSSFYCLEYFPSQMLRTGNNFTFSYTFEDVPFHSSYAHSQSLDRLMNPLIDQYLYYLSRTNTPSGTTTQSRLQFSQAGASDIRDQSRNWLPGPCYRQQRVSKTSADNNNSEYSWTGATKYHLNGRDSLVNPGPAMASHKDDEEKFFPQSGVLIFGKQGSEKTNVDIEKVMITDEEEIRTTNPVATEQYGSVSTNLQRGNRQAADEDVNTQGVLPGMVWQDRDVYLQGPIWAKIPHTDGHFHPSPLMGGFGLKHPPPQILIKNTPVPANPSTTFSAAKFASFITQYSTGQVSVEIEWELQKENSKRWNPEIQYTSNYNKSVNVDFTVDTNGVYSEPRPIGTRYLTRNL
notes: VP3-only VLP
For B1, the “Fold change vs WT” value in assay [2] was around 6 fold.

B2: AAV9 VP3 VLP A273N/Q387K/E500R (other)
VP3: MASGGGAPVADNNEGADGVGSSSGNWHCDSQWLGDRVITTSTRTWALPTYNNHLYKQISNSTSGGSSNDNNYFGYSTPWGYFDFNRFHCHFSPRDWQRLINNNWGFRPKRLNFKLFNIQVKEVTDNNGVKTIANNLTSTVQVFTDSDYQLPYVLGSAHEGCLPPFPADVFMIPQYGYLTLNDGSKAVGRSSFYCLEYFPSQMLRTGNNFQFSYEFENVPFHSSYAHSQSLDRLMNPLIDQYLYYLSKTINGSGQNQQTLKFSVAGPSNMAVQGRNYIPGPSYRQQRVSTTVTQNNNSRFAWPGASSWALNGRNSLMNPGPAMASHKEGEDRFFPLSGSLIFGKQGTGRDNVDADKVMITNEEEIKTTNPVATESYGQVATNHQSAQAQAQTGWVQNQGILPGMVWQDRDVYLQGPIWAKIPHTDGNFHPSPLMGGFGMKHPPPQILIKNTPVPADPPTAFNKDKLNSFITQYSTGQVSVEIEWELQKENSKRWNPEIQYTSNYYKSNNVEFAVNTEGVYSEPRPIGTRYLTRNL
notes: VP3-only VLP; also called AN.QK.ER
For B2, the results for the Kd in assay [3], in assay [5] and in assay [8] were 80 nM, 20 nM and 20 nM, respectively. Moreover, the koff was 0.000962 s⁻¹ in assay [3], 0.000667 s⁻¹ in assay [5] and 0.000667 s⁻¹ in assay [8]. For the same molecule, the kon in assay [3] came out at 11800 M⁻¹ s⁻¹; in assay [5] it was 33300 M⁻¹ s⁻¹; in assay [8] it was 33300 M⁻¹ s⁻¹. Moreover, the results for the “Fold change vs WT” value in assay [4] and in assay [7] were 53 fold and 117 fold, respectively. Further, the “KD Fold Change” value in assay [6] is 117 fold.
